B1: DNA polymerase eta (Saccharomyces cerevisiae), Q04049 (parent)
chain: MSKFTWKELIQLGSPSKAYESSLACIAHIDMNAFFAQVEQMRCGLSKEDPVVCVQWNSIIAVSYAARKYGISRMDTIQEALKKCSNLIPIHTAVFKKGEDFWQYHDGCGSWVQDPAKQISVEDHKVSLEPYRRESRKALKIFKSACDLVERASIDEVFLDLGRICFNMLMFDNEYELTGDLKLKDALSNIREAFIGGNYDINSHLPLIPEKIKSLKFEGDVFNPEGRDLITDWDDVILALGSQVCKGIRDSIKDILGYTTSCGLSSTKNVCKLASNYKKPDAQTIVKNDCLLDFLDCGKFEITSFWTLGGVLGKELIDVLDLPHENSIKHIRETWPDNAGQLKEFLDAKVKQSDYDRSTSNIDPLKTADLAEKLFKLSRGRYGLPLSSRPVVKSMMSNKNLRGKSCNSIVDCISWLEVFCAELTSRIQDLEQEYNKIVIPRTVSISLKTKSYEVYRKSGPVAYKGINFQSHELLKVGIKFVTDLDIKGKNKSYYPLTKLSMTITNFDIIDLQKTVVDMFGNQVHTFKSSAGKEDEEKTTSSKADEKTPKLECCKYQVTFTDQKALQEHADYHLALKLSEGLNGAEESSKNLSFGEKRLLFSRKRPNSQHTATPQKKQVTSSKNILSFFTRKK

Variants of: B1
Conditions: with pcna_yeast POL30, P15873
Sequence of pcna_yeast POL30, P15873 (P15873 whole entry): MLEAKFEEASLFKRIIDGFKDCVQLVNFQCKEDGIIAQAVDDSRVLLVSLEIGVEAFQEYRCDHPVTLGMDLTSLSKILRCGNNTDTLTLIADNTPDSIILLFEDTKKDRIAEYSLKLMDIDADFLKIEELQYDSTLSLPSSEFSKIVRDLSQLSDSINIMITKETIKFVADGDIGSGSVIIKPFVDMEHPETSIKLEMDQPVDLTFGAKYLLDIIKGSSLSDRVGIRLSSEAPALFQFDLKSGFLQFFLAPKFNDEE

| effect of a mutation on the interaction | Variant |
| --- | --- |
| decreasing interaction | F627A;F628A |

Source: IntAct's records for PubMed 11545742
